# B1: VPS39 (parent)
# chain: LRLENNHCHIEESEHVLKKAHKYS
# Variants of: B1
# Experiment: protein stability index of a GFP-peptide fusion (GPS, HEK-293T) (PSI 1-6); higher = more stable
# Conditions: c terminus: a fixed tail appended
# 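Note: lentivirally expressed fusions sorted by FACS into six bins by GFP to DsRed ratio, PSI derived from sequencing read proportions per bin multiplied by bin number.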
row,Variant,protein stability index
1,LRAENNHCHIEESEHVLKKAHKYS,3.55
2,LRWENNHCHIEESEHVLKKAHKYS,3.01
3,LRVENNHCHIEESEHVLKKAHKYS,2.38
4,LREENNHCHIEESEHVLKKAHKYS,4.58
5,LRGENNHCHIEESEHVLKKAHKYS,4.43
6,LRIENNHCHIEESEHVLKKAHKYS,2.62
7,LRRENNHCHIEESEHVLKKAHKYS,4.51
8,LRTENNHCHIEESEHVLKKAHKYS,3.06
9,LRDENNHCHIEESEHVLKKAHKYS,3.12
10,LRKENNHCHIEESEHVLKKAHKYS,4.32
11,LRNENNHCHIEESEHVLKKAHKYS,3.17
12,LRFENNHCHIEESEHVLKKAHKYS,2.09
13,LRSENNHCHIEESEHVLKKAHKYS,3.33
14,LRHENNHCHIEESEHVLKKAHKYS,3.6
15,LRPENNHCHIEESEHVLKKAHKYS,3.7
16,LRQENNHCHIEESEHVLKKAHKYS,4.06
17,LRMENNHCHIEESEHVLKKAHKYS,3.13
18,LRYENNHCHIEESEHVLKKAHKYS,2.56
19,LRLENNACHIEESEHVLKKAHKYS,2.79
20,LRLENNDCHIEESEHVLKKAHKYS,2
21,LRLENNLCHIEESEHVLKKAHKYS,2.32
22,LRLENNKCHIEESEHVLKKAHKYS,2.84
23,LRLENNFCHIEESEHVLKKAHKYS,2.03
24,LRLENNMCHIEESEHVLKKAHKYS,2.46

row,Variant,protein stability index
1,LRLENNWCHIEESEHVLKKAHKYS,2.17
2,LRLENNSCHIEESEHVLKKAHKYS,2.04
3,LRLENNGCHIEESEHVLKKAHKYS,1.97
4,LRLENNYCHIEESEHVLKKAHKYS,2.79
5,LRLENNTCHIEESEHVLKKAHKYS,2.88
6,LRLENNVCHIEESEHVLKKAHKYS,2.35
7,LRLENNECHIEESEHVLKKAHKYS,2.38
8,LRLENNQCHIEESEHVLKKAHKYS,2.34
9,LRLENNCCHIEESEHVLKKAHKYS,2.15
10,LRLENNICHIEESEHVLKKAHKYS,2.15
11,LRLENNPCHIEESEHVLKKAHKYS,3.01
12,LRLENNNCHIEESEHVLKKAHKYS,3.37
13,LRLENNRCHIEESEHVLKKAHKYS,2.9
14,SRLENNHCHIEESEHVLKKAHKYS,4.19
15,WRLENNHCHIEESEHVLKKAHKYS,3.14
16,YRLENNHCHIEESEHVLKKAHKYS,4.1
17,TRLENNHCHIEESEHVLKKAHKYS,4.32
18,VRLENNHCHIEESEHVLKKAHKYS,2.29
19,LRLENNHVHIEESEHVLKKAHKYS,1.88
20,LRLENNHRHIEESEHVLKKAHKYS,2.95
21,LRLENNHYHIEESEHVLKKAHKYS,1.86
22,LRLENNHFHIEESEHVLKKAHKYS,2.29
23,LRLENNHSHIEESEHVLKKAHKYS,2.88
24,LRLENNHNHIEESEHVLKKAHKYS,2.38

row,Variant,protein stability index
1,LRLENNHKHIEESEHVLKKAHKYS,3.3
2,LRLENNHMHIEESEHVLKKAHKYS,2.43
3,LRLENNHHHIEESEHVLKKAHKYS,3.03
4,LRLENNHPHIEESEHVLKKAHKYS,2.53
5,LRLENNHLHIEESEHVLKKAHKYS,2.47
6,LRLENNHIHIEESEHVLKKAHKYS,2.15
7,LRLENNHAHIEESEHVLKKAHKYS,3.17
8,LRLENNHEHIEESEHVLKKAHKYS,2.35
9,LRLENNHWHIEESEHVLKKAHKYS,2.4
10,LRLENNHTHIEESEHVLKKAHKYS,3.19
11,LRLENNHGHIEESEHVLKKAHKYS,2.27
12,LRLENNHDHIEESEHVLKKAHKYS,3.58
13,LRLENNHQHIEESEHVLKKAHKYS,2.27
14,LRLKNNHCHIEESEHVLKKAHKYS,3.45
15,LRLSNNHCHIEESEHVLKKAHKYS,2.71
16,LRLPNNHCHIEESEHVLKKAHKYS,2.83
17,LRLINNHCHIEESEHVLKKAHKYS,2.17
18,LRLNNNHCHIEESEHVLKKAHKYS,3.92
19,LRLVNNHCHIEESEHVLKKAHKYS,2.71
20,LRLWNNHCHIEESEHVLKKAHKYS,2.44
21,LRLHNNHCHIEESEHVLKKAHKYS,3.32
22,LRLRNNHCHIEESEHVLKKAHKYS,3.45
23,LRLDNNHCHIEESEHVLKKAHKYS,3.12
24,LRLLNNHCHIEESEHVLKKAHKYS,2.35

row,Variant,protein stability index
1,LRLANNHCHIEESEHVLKKAHKYS,2.68
2,LRLYNNHCHIEESEHVLKKAHKYS,2.53
3,LRLCNNHCHIEESEHVLKKAHKYS,2.44
4,LRLQNNHCHIEESEHVLKKAHKYS,2.92
5,LRLFNNHCHIEESEHVLKKAHKYS,2.54
6,LRLMNNHCHIEESEHVLKKAHKYS,2.65
7,LRLGNNHCHIEESEHVLKKAHKYS,2.41
8,LRLTNNHCHIEESEHVLKKAHKYS,2.56
9,LFLENNHCHIEESEHVLKKAHKYS,2.62
10,LDLENNHCHIEESEHVLKKAHKYS,4.26
11,LKLENNHCHIEESEHVLKKAHKYS,3.12
12,LILENNHCHIEESEHVLKKAHKYS,2.54
13,LGLENNHCHIEESEHVLKKAHKYS,4.24
14,LQLENNHCHIEESEHVLKKAHKYS,4.11
15,LCLENNHCHIEESEHVLKKAHKYS,3.15
16,LELENNHCHIEESEHVLKKAHKYS,4.59
17,LHLENNHCHIEESEHVLKKAHKYS,3.55
18,LVLENNHCHIEESEHVLKKAHKYS,2.44
19,LWLENNHCHIEESEHVLKKAHKYS,2.15
20,LSLENNHCHIEESEHVLKKAHKYS,3.62
21,LTLENNHCHIEESEHVLKKAHKYS,3.81
22,LPLENNHCHIEESEHVLKKAHKYS,4.55
23,LYLENNHCHIEESEHVLKKAHKYS,2.79
24,LALENNHCHIEESEHVLKKAHKYS,3.68

row,Variant,protein stability index
1,LMLENNHCHIEESEHVLKKAHKYS,2.66
2,LLLENNHCHIEESEHVLKKAHKYS,2.54
3,LNLENNHCHIEESEHVLKKAHKYS,3.55
4,LRLENNHCCIEESEHVLKKAHKYS,2.86
5,LRLENNHCSIEESEHVLKKAHKYS,3.23
6,LRLENNHCRIEESEHVLKKAHKYS,2.83
7,LRLENNHCMIEESEHVLKKAHKYS,2.42
8,LRLENNHCPIEESEHVLKKAHKYS,1.8
9,LRLENNHCEIEESEHVLKKAHKYS,1.59
10,LRLENNHCVIEESEHVLKKAHKYS,2.4
11,LRLENNHCLIEESEHVLKKAHKYS,1.84
12,LRLENNHCFIEESEHVLKKAHKYS,1.92
13,LRLENNHCDIEESEHVLKKAHKYS,2.68
14,LRLENNHCNIEESEHVLKKAHKYS,2.27
15,LRLENNHCTIEESEHVLKKAHKYS,3.29
16,LRLENNHCAIEESEHVLKKAHKYS,2.2
17,LRLENNHCIIEESEHVLKKAHKYS,2.19
18,LRLENNHCKIEESEHVLKKAHKYS,3.59
19,LRLENNHCWIEESEHVLKKAHKYS,2.18
20,LRLENNHCQIEESEHVLKKAHKYS,2.57
21,LRLENNHCGIEESEHVLKKAHKYS,2.7
22,LRLENNHCYIEESEHVLKKAHKYS,1.92
23,LRLENGHCHIEESEHVLKKAHKYS,2.66
24,LRLENLHCHIEESEHVLKKAHKYS,2.58

row,Variant,protein stability index
1,LRLENRHCHIEESEHVLKKAHKYS,2.49
2,LRLENFHCHIEESEHVLKKAHKYS,1.75
3,LRLENWHCHIEESEHVLKKAHKYS,1.97
4,LRLENTHCHIEESEHVLKKAHKYS,2.35
5,LRLENYHCHIEESEHVLKKAHKYS,2.23
6,LRLENAHCHIEESEHVLKKAHKYS,2.72
7,LRLENIHCHIEESEHVLKKAHKYS,2.33
8,LRLENEHCHIEESEHVLKKAHKYS,3.13
9,LRLENPHCHIEESEHVLKKAHKYS,2.12
10,LRLENCHCHIEESEHVLKKAHKYS,2.44
11,LRLENMHCHIEESEHVLKKAHKYS,1.87
12,LRLENDHCHIEESEHVLKKAHKYS,2.54
13,LRLENQHCHIEESEHVLKKAHKYS,2.63
14,LRLENVHCHIEESEHVLKKAHKYS,2.13
15,LRLENKHCHIEESEHVLKKAHKYS,3.49
16,LRLENSHCHIEESEHVLKKAHKYS,2.55
17,LRLENHHCHIEESEHVLKKAHKYS,3.16
18,LRLENNHCHIHESEHVLKKAHKYS,2.52
19,LRLENNHCHIKESEHVLKKAHKYS,2.79
20,LRLENNHCHILESEHVLKKAHKYS,2.86
21,LRLENNHCHIPESEHVLKKAHKYS,2.26
22,LRLENNHCHINESEHVLKKAHKYS,2.19
23,LRLENNHCHIIESEHVLKKAHKYS,2.12
24,LRLENNHCHIMESEHVLKKAHKYS,2.31

row,Variant,protein stability index
1,LRLENNHCHIDESEHVLKKAHKYS,2.65
2,LRLENNHCHIQESEHVLKKAHKYS,2.06
3,LRLENNHCHIAESEHVLKKAHKYS,3.06
4,LRLENNHCHICESEHVLKKAHKYS,1.99
5,LRLENNHCHIFESEHVLKKAHKYS,1.75
6,LRLENNHCHIGESEHVLKKAHKYS,2.72
7,LRLENNHCHYEESEHVLKKAHKYS,2.57
8,LRLENNHCHWEESEHVLKKAHKYS,2.43
9,LRLENNHCHNEESEHVLKKAHKYS,2.73
10,LRLENNHCHFEESEHVLKKAHKYS,2.11
11,LRLENNHCHTEESEHVLKKAHKYS,3.02
12,LRLENNHCHLEESEHVLKKAHKYS,1.9
13,LRLENNHCHEEESEHVLKKAHKYS,3.08
14,LRLENNHCHREESEHVLKKAHKYS,3.01
15,LRLENNHCHVEESEHVLKKAHKYS,2.68
16,LRLENNHCHDEESEHVLKKAHKYS,3.53
17,LRLENNHCHSEESEHVLKKAHKYS,3.33
18,LRLENNHCHPEESEHVLKKAHKYS,3.1
19,LRLENNHCHGEESEHVLKKAHKYS,2.74
20,LRLENNHCHCEESEHVLKKAHKYS,3.18
21,LRLENNHCHKEESEHVLKKAHKYS,3.33
22,LRLENNHCHAEESEHVLKKAHKYS,3.75
23,LRLENNHCHHEESEHVLKKAHKYS,3.17
24,LRLENNHCHMEESEHVLKKAHKYS,2.34

row,Variant,protein stability index
1,LRLENNHCHQEESEHVLKKAHKYS,3
2,LRLELNHCHIEESEHVLKKAHKYS,2.23
3,LRLEKNHCHIEESEHVLKKAHKYS,3.08
4,LRLESNHCHIEESEHVLKKAHKYS,1.98
5,LRLEVNHCHIEESEHVLKKAHKYS,1.48
6,LRLEINHCHIEESEHVLKKAHKYS,2.22
7,LRLEPNHCHIEESEHVLKKAHKYS,2.29
8,LRLEDNHCHIEESEHVLKKAHKYS,1.94
9,LRLEHNHCHIEESEHVLKKAHKYS,1.91
10,LRLEENHCHIEESEHVLKKAHKYS,2.46
11,LRLEWNHCHIEESEHVLKKAHKYS,1.74
12,LRLECNHCHIEESEHVLKKAHKYS,2.22
13,LRLERNHCHIEESEHVLKKAHKYS,2.77
14,LRLEMNHCHIEESEHVLKKAHKYS,2.33
15,LRLEFNHCHIEESEHVLKKAHKYS,1.27
16,LRLEYNHCHIEESEHVLKKAHKYS,2.37
17,LRLEQNHCHIEESEHVLKKAHKYS,2.18
18,LRLEANHCHIEESEHVLKKAHKYS,2.23
19,LRLEGNHCHIEESEHVLKKAHKYS,1.91
20,LRLETNHCHIEESEHVLKKAHKYS,2.48

# Source: the supplement of paper PMC10567573
